Results: US11766403B2, “Peptide-targeted liposomal delivery for treatment, diagnosis, and imaging of diseases and disorders” (University of Maryland, Baltimore, priority 2019, dated 2023)
Where no end group is shown, it is not given here.

What was measured:
rat arthritic joints = assay: In vivo distribution of Cy7-labeled ART-2 peptide (homing to arthritic joints); settings: i.v., arthritic rats, 4 h
Experimental: (§1) FIG. 4, comprising FIG. 4A through FIG. 4D, depicts in vitro and in vivo binding of ART-2 peptides. FIG. 4A depicts the binding of fluorescein isothiocyanate (FITC)-labeled ART-2 peptide to human umbilical vein endothelial cells (HUVEC) in vitro (HUVEC were treated with ART-2-FITC peptides for 2 h at the indicated concentrations). A representative histogram is shown. FIG. 4B depicts HUVEC that were stained with ART-2-FITC peptide at 0.5 μM concentration, PE-labeled CD31 (a marker for endothelial cells), and DAPI (for nucleus staining) and examined under a fluorescence microscope. FIG. 4C depicts in vivo distribution of Cyanine 7 (Cy7)-labeled ART-2 peptide: real-time fluorescence imaging of arthritic rats at 4 h time point after i.v. injection of the peptide following the procedure described in the legend to FIG. 7. FIG. 4D depicts images of ex-vivo fluorescence of different organs harvested from arthritic rats at 4 h after i.v. injection of ART-2-Cy7-peptide.

[1] = test system: human umbilical vein endothelial cells (HUVEC); assay: Binding of FITC-labeled ART-2 peptide to endothelial cells in vitro; format: cell-based; settings: 2 h
Experimental: as §1

CKPFDRALC (not fully specified; cysteine pairing not given here) [ART-2, novel tissue-targeting peptide]
homing to arthritic joints (rat arthritic joints): preferential homing to rat arthritic joints
binding of peptide to endothelial cells [1]: avid binding to endothelial cells
